In patent US20220089784A1 (University of California, published 2022):

How the values were obtained:
[1] = target: T1, BoNT/C1 holotoxin (Clostridium botulinum, UniProt P18640 2-1291); test: yeast scFv FACS
T1 sequence: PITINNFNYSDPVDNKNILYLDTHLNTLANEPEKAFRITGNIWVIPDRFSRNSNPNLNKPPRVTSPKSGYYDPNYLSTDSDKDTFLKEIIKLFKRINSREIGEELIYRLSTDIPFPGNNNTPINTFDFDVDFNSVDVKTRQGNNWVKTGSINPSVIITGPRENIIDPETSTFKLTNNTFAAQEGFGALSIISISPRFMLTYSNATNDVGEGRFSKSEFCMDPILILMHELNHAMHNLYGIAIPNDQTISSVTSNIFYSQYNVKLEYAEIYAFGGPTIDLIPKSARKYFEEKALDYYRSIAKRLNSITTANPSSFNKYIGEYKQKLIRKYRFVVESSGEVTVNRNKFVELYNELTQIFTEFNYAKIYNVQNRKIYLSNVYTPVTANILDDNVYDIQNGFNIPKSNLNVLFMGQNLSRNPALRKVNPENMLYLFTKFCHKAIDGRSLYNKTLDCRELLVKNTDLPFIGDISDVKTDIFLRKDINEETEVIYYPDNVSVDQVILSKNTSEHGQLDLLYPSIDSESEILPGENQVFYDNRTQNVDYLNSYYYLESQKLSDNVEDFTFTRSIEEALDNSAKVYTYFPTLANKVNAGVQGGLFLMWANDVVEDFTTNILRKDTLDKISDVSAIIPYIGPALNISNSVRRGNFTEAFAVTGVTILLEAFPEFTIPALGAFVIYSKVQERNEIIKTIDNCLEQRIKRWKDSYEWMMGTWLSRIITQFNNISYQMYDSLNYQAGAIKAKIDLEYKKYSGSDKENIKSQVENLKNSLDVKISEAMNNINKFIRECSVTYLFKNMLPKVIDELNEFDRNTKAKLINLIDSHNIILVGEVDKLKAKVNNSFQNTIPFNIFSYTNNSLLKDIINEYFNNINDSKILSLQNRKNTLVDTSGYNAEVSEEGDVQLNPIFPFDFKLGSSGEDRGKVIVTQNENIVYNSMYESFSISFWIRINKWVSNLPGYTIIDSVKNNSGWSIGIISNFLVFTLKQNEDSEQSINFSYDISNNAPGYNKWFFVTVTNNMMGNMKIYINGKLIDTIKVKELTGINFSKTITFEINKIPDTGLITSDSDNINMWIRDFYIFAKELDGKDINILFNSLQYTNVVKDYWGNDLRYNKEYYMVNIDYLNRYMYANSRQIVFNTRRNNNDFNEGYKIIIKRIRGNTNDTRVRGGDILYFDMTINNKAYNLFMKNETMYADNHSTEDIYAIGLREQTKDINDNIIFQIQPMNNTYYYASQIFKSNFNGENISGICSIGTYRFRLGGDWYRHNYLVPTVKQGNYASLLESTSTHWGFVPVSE

[2] = target: T2, BoNT/D (Clostridium botulinum, UniProt P19321 2-1276); test: yeast scFv FACS
T2 sequence: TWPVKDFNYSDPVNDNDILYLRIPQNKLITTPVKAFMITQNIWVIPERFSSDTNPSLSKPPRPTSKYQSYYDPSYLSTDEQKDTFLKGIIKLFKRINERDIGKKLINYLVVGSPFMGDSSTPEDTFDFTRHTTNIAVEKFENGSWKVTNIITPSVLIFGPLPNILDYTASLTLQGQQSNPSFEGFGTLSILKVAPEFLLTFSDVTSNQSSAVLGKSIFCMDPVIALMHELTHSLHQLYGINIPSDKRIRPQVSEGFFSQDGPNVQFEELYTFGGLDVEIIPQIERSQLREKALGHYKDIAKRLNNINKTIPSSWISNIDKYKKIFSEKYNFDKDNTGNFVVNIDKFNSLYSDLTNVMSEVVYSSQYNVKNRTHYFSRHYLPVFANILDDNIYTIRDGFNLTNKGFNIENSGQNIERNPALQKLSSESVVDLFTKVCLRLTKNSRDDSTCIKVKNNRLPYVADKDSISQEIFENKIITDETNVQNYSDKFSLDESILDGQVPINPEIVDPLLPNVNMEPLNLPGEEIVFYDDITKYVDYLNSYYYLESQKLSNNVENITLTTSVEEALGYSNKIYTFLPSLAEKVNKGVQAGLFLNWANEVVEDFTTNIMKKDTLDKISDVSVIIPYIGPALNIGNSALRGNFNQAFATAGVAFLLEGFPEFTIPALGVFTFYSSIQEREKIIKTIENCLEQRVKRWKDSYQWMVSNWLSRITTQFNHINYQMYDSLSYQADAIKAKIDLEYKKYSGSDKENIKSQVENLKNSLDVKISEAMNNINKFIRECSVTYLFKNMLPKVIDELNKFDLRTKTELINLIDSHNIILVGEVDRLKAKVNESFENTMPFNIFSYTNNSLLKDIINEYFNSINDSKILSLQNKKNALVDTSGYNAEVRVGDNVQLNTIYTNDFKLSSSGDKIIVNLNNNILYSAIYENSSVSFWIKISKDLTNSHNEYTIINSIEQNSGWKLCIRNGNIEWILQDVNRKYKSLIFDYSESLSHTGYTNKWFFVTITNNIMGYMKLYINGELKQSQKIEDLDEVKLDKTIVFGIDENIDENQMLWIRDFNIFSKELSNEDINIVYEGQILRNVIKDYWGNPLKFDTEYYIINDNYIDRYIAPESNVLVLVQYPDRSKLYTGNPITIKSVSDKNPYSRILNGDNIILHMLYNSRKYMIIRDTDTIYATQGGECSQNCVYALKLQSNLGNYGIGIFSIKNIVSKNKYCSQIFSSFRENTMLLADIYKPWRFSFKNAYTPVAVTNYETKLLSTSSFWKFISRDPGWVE

[3] = target: T3, BoNT/F1 (proteolytic BoNT/F) (Clostridium botulinum, UniProt A7GBG3 1-1278); test: IgG
T3 sequence: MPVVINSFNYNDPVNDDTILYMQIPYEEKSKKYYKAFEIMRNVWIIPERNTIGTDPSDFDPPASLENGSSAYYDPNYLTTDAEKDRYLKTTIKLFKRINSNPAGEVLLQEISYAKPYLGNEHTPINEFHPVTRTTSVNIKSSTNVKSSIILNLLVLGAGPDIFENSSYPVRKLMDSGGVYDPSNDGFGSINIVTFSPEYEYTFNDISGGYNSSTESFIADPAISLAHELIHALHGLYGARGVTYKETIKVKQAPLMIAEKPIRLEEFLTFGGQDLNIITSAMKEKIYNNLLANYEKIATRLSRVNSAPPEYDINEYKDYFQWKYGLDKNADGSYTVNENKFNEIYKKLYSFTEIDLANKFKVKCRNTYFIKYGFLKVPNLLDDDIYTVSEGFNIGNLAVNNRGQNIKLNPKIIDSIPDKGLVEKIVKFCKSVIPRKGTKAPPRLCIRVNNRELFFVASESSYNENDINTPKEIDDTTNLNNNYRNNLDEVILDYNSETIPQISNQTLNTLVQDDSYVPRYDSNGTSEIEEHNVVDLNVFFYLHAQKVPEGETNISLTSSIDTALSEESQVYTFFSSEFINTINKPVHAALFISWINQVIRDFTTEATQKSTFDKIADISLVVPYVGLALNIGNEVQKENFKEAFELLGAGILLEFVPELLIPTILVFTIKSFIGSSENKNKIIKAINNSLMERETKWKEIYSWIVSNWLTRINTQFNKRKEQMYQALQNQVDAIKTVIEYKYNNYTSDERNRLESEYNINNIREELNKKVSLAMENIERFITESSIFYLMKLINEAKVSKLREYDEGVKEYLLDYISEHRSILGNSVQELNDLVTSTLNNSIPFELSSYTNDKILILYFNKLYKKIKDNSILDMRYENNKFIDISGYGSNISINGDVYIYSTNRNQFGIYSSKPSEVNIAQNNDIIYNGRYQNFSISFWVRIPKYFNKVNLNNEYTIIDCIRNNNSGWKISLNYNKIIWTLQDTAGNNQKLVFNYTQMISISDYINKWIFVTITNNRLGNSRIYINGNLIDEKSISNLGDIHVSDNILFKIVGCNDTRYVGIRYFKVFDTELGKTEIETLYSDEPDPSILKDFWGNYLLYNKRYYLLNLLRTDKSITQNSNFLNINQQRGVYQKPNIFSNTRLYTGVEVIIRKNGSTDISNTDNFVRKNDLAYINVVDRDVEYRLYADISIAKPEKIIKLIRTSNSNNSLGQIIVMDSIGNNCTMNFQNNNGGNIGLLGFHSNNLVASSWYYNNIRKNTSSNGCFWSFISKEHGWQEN

B1: 4C5 scFv (scFv, V domains shown)
VH: QVQLVQSGADVKKPGASVRVSCKASGYTISTYAMSWVRQAPGQGLEWMGWISGYNGNTNYAQEFQGRVTMTRDTSTNTAYMELRSLRSDDTAFYYCARVKLTTMVRGGPFDYWGQGTLVTVSS
VL: EIVLTQSPSSLSATVGDRVTITCRASQGIRNDLVWYQQKPGKAPKRLTYAASSLLSGVPSRFSGSGSGTDFTLTISSLQPEDFATYYCQQYNSYPPTFGGGTKLEIK
notes: human
Kd [1]: 0.143 nM
binding result [2]: no binding (tested: ~1 µM)

B2: 4C9 scFv (scFv, V domains shown)
VH: QVQLVESGAEVKKPGASVKVSCTASGYTFAGYYMDWVRQAPGQGLEWMGRINPKSGDPNYEQKFQGRVTLTRDKSINTVYMELSRLKSDDTAIYYCARSVSGGAFDLWGRGTLVTVSS
VL: DIVMTQSPSSLSASVGDRVTITCRASQSINSYLNWYQQKPGKVPRLLIYSASSLQSGVPSRFSGSGSGTDFTLTISSLQPDDFATYYCQQYKRYSSFGQGTKVEIK
notes: human
Kd [1]: 29.6 nM
binding result [2]: no binding (tested: ~1 µM)

B3: 6F10 IgG (antibody, V domains shown)
VH: EVQLQESGGDLVKPGGSLKLSCAASGFTFSYYGMSWVRQTPDKRLEWVATISSGGTYTYYPDSVKGRFTISRDNAKNTLYLQMSSLSSEDTAMYYCARRRSYDSVYWYFDVWGAGTSVTVSS
VL: DIVLTQSPAITAASLGQKVTITCSASSSGSYIHWYQQKSGTSPKLLIYRTSNLASGVPSRFSGSGSGTFYSLTISSVEAEDAADYFCHQWSSYPTFGGGTKLEIK
notes: IgG from scFv V genes
Kd [3]: 0.07 nM

B4: 4C8 scFv (scFv, V domains shown)
VH: QVQLVESGGGLVQPGRSLRLSCAASGLTLSNYWMNWVRQAPGKGLEWVANIHQDGVEKYYVDSVKGRFTISRDNAKNSLYLQMSSLRAEDTAVYYCARGGKYSNSSAMYQWGQGTLVTVSS
VL: DIVMTQSPSSLAASVGDRVTITCRASQSISGYLNWYQQKPGKAPNLLIYAASSLQSGVPSRFSGSGSGTDFTLTISSLQPDDFASYYCQQSYDIPRTFGQGTKVEIK
notes: human
Kd [1]: 51.1 nM
binding result [2]: no binding (tested: ~1 µM)

B5: 4C3 scFv (scFv, V domains shown)
VH: EVQLVQSGAEVKKPGSSVKVSCKASGNSLNNYAITWVRQAPGQGLEWMGGINPLFGTANYAQKFQDRVTMTADESTNIAYLDLSSLTTADTAVYFCAVGAFTNYPFWGQGTTVTVSS
VL: SGLTQDPAVSEALGQTVRITCQGDSLRSYYASWYQQKPGQAPLLVIYAGNNRPSGIPDRFSGSSSGNTASLTITGARAEDEADYYCNSRDSSGNYLFGAGTKLTVL
notes: human
Kd [1]: 4.7 nM
binding result [2]: no binding (tested: ~1 µM)

B6: 87C78 scFv (scFv, V domains shown)
VH: QVQLQESGGGVVQPGKSLRLSCVTSTFTLGTYAMHWVRQAPGKGLQWVAVISYDGRYADYADSVKGRFNISRDNSKNTLYLQMHSLTTEDTALYYCAKAIKAFRPVPPSFHMDVWGIGTTVTVSS
VL: DIVMTQSPSSLSASVGDRVTITCRASQGISSYLAWYQQKPGKAPQLLIYKASILKSGVPSRFSGSGSGTEFTLTISSLQPEDFATYFCQQTFDTPLTFGQGTKVEIK
notes: human
Kd [1]: 1 nM
binding result [2]: no binding (tested: ~1 µM)

B7: 4C1 scFv (scFv, V domains shown)
VH: QVQLQESGPGLVKPSQTLSLTCAVSGGSINSGDYYWTWIRQHPGKGLEWIGNIYYTGRTYYNPSLQSRLTMSVDTSRTHFSLKLSAVTAADTAVYYCARGQDTSMVTRNFYYGLDVWGQGTTVTVSS
VL: DIVMTQSPSFVSASVGDRVTITCRASQGISSYLAWYQQKPGKAPKLLIYAASTLQSGVPSRFSGSGSGTDFTLTISSLQPEDIATYYCQELSSYPLTFGGGTKLEIK
notes: human
Kd [1]: 2.7 nM
binding result [2]: no binding (tested: ~1 µM)

B8: 6F9 IgG (antibody, V domains shown)
VH: QVQLQQPGAELVKPGASVKLSCKASGNSFASSWMHWVKQRPGQGLEWIGMIHPYSGSTNFNEKFKSKATLSVDKSSSTAYMQLSSLTSEDSAVYYCAMNWDWYFDVWGTGTTVTVSA
VL: DVVMTQSPKFMSTSVGDRVSITCKASQDVGTAVAWYQQKPGQSPKLLIYWASTRHTGVPDRFTGSGSGTDFTLTISDVLSEDLADYFCQQYGGYPTFGGGTKLEIK
notes: IgG from scFv V genes
Kd [3]: 0.26 nM

B9: 6F8 IgG (antibody, V domains shown)
VH: QVQLKQSGAELVKSGASVKLSCTASGFNIKDFYMHWVKQRTEQGLEWIGRIDPEDGETKYAPKFQGKATITADTSSNTAYLQLSSLTSEDTAVYYCVRDRDYDWGQGTTLTVSS
VL: not shown
notes: IgG from scFv V genes
Kd [3]: 0.22 nM
